# From patent publication US20150203577A1 (Chugai, published 2015)
# T1: mouse FcγRIII (mouse, UniProt P08508 31-215)
# T1 construct: also called mFcγRIII; mFcgRIII
# T1 chain: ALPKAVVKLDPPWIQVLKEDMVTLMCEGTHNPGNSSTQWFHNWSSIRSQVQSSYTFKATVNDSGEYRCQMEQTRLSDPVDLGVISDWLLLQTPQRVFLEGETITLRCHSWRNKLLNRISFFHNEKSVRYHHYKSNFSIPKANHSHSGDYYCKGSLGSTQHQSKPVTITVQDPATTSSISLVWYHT
# T2: mouse FcγRII (mouse, UniProt P08101 30-210)
# T2 construct: also called mFcγRII; mFcgRII
# T2 sequence: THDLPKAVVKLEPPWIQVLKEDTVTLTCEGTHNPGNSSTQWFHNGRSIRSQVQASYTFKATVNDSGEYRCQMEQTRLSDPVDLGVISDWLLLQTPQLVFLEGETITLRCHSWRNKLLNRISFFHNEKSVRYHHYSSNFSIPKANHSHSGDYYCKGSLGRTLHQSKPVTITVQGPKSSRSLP
# B1: H237-MB885/MRAL-k0 (antibody, mouse IgG1, kappa)
# heavy: QVQLQESGPGLVKPSETLSLTCAVSGHSISHDHAWSWVRQPPGEGLEWIGFISYSGITNYNPSLQGRVTISRDNSKNTLYLQMNSLRAEDTAVYYCARSLARTTAMDYWGEGTLVTVSSAKTTPPSVYPLAPGSAAQTNSMVTLGCLVKGYFPEPVTVTWNSGSLSSGVHTFPAVLQSDLYTLSSSVTVPSSTWPSETVTCNVAHPASSTKVDKKIVPRDCGCKPCICEPAEEESVFIFPPKPKDVLTITLTPKVTCVVVDISKDDPEVQFSWFVDDVEVHTAQTQPREEQFNSTFRSVSELPIMHQDWLNGKEFKCRVNSAAFPAPIEKTISKTKGRPKAPQVYTIPPPKEQMAKDKVSLTCMITDFFPEDITVEWQWNGQPAENYKNTQPIMDTDGSYFVYSKLNVQKSNWEAGNTFTCSVLHEGLHNHHTEKSLSHSPGK
# light: not shown
# notes: mouse IgG1 CH variant; copies: 2 + 2
# B2: H237-MB886/MRAL-k0 (antibody, mouse IgG1, kappa)
# heavy: QVQLQESGPGLVKPSETLSLTCAVSGHSISHDHAWSWVRQPPGEGLEWIGFISYSGITNYNPSLQGRVTISRDNSKNTLYLQMNSLRAEDTAVYYCARSLARTTAMDYWGEGTLVTVSSAKTTPPSVYPLAPGSAAQTNSMVTLGCLVKGYFPEPVTVTWNSGSLSSGVHTFPAVLQSDLYTLSSSVTVPSSTWPSETVTCNVAHPASSTKVDKKIVPRDCGCKPCICEPNEEESVFIFPPKPKDVLTITLTPKVTCVVVDISKDDPEVQFSWFVDDVEVHTAQTQPREEQFNSTFRSVSELPIMHQDWLNGKEFKCRVNSAAFPAPIEKTISKTKGRPKAPQVYTIPPPKEQMAKDKVSLTCMITDFFPEDITVEWQWNGQPAENYKNTQPIMDTDGSYFVYSKLNVQKSNWEAGNTFTCSVLHEGLHNHHTEKSLSHSPGK
# light: not shown
# notes: as for B1
# How the values were obtained:
# mouse FcγRIII = molecular target: T1, mouse FcγRIII; assay: SPR (Biacore), antibody captured on Protein L, mFcγR as analyte
# mouse FcγRII = molecular target: T2, mouse FcγRII; assay: as above
Binder,Kd (mouse FcγRIII) [µM],relative mFcγRIII-binding activity (mIgG1 = 1) (mouse FcγRIII) [fold],Kd (mouse FcγRII) [µM],relative mFcγRII-binding activity (mIgG1 = 1) (mouse FcγRII) [fold]
B1,4.35,0.13,0.111,3.29
B2,7.22,0.08,0.246,1.47
